Reference: FireProtDB (doi:10.1002/pro.370)

B1: Guanyl-specific ribonuclease Sa, P05798 (parent)
chain: DVSGTVCLSALPPEATDTLNLIASDGPFPYSQDGVVFQNRESVLPTQSYGYYHEYTVITPGARTRGTRRIITGEATQEDYYTGDHYATFSLIDQTC

Variants of: B1
Details: Kitasatospora aureofaciens, 25 °C, Urea, CD, structure 1RGG, whole UniProt chain shown

Variant | ddG of mutation (higher = less stable) (pH 3, Glycine 30 mM) | denaturant m value (pH 3, Glycine 30 mM) | denaturant midpoint (higher = more stable) (pH 3, Glycine 30 mM) | unfolding free energy (pH 3, Glycine 30 mM) | ddG of mutation (higher = less stable) (pH 7, MOPS 30 mM) | denaturant m value (pH 7, MOPS 30 mM) | denaturant midpoint (higher = more stable) (pH 7, MOPS 30 mM) | unfolding free energy (pH 7, MOPS 30 mM)
D1K D17K E41K D25K E74K D79K | -0.2 kcal/mol | 2.25 kcal/mol/M | 1.2 M | 2.7 kcal/mol | -0.7 kcal/mol | 1.03 kcal/mol/M | 6.9 M | 7.1 kcal/mol
D1K D17K E41K D25K E74K | -0.9 kcal/mol | 1.92 kcal/mol/M | 1.8 M | 3.5 kcal/mol | 0.7 kcal/mol | 1.07 kcal/mol/M | 5.3 M | 5.7 kcal/mol
D1K D17K E41K D25K E74K D79K S31K | 0 kcal/mol | 2.37 kcal/mol/M | 1.1 M | 2.6 kcal/mol | -0.2 kcal/mol | 1.15 kcal/mol/M | 5.7 M | 6.6 kcal/mol
R40E R63E | -1.1 kcal/mol | 1.66 kcal/mol/M | 2.2 M | 3.7 kcal/mol | – | – | – | –
R40E R63E R65A R68A R69A | -2.7 kcal/mol | 1.17 kcal/mol/M | 4.5 M | 5.3 kcal/mol | 2.5 kcal/mol | 0.85 kcal/mol/M | 4.6 M | 3.9 kcal/mol
R40E | -0.3 kcal/mol | 1.52 kcal/mol/M | 1.9 M | 2.9 kcal/mol | – | – | – | –
D1K D17K E41K | -0.7 kcal/mol | 1.95 kcal/mol/M | 1.7 M | 3.3 kcal/mol | 2.7 kcal/mol | 0.93 kcal/mol/M | 4 M | 3.7 kcal/mol
